These results are taken from US20240270793A1, “COMPOSITIONS” (UNIVERSITY OF SOUTHAMPTON, priority 2020, published 2024).

Assay [1] addresses T1, HIF-1α PAS-B (238-349) (Homo sapiens, UniProt Q16665).
T1 construct: human HIF-1α PAS-B (238-349); His tag; made in house; host or cells: E. coli BL21(DE3)-Rosetta, pET28a
The assay can be described thus: MST binding to recombinantly expressed HIF-1α PAS-B domain. As to conditions: for affinity for the PAS-B domain of HIF-1α compared with cyclo-CLLFVY: compared with previously reported HIF-1 dimerization inhibitor. As for the experimental part: (§1) Genes encoding for human HIF-1α PAS-B (238-349) and HIF-2α PAS-B (240-350) were each cloned into pET28a vectors at the BamHI and SacI restriction sites. The recombinant plasmids were next transformed into BL21(DE3)-Rosetta chemically competent cells. Cells were grown in LB media at 37° C. to an OD600 of 0.7, after which expression was induced by addition of 0.5 mM IPTG. Following overnight expression at 16° C., cells were pelleted and resuspended in buffer containing 50 mM Tris, 150 mM NaCl, 5% glycerol, 1 mM TCEP, protease inhibitors (Roche) and 20 mM imidazole, pH 8.0. Cells were lysed by sonication, and the supernatant applied to a 1 mL Histrap FF affinity column. The His-tagged protein of interest was eluted with buffer containing 50 mM Tris, 150 mM NaCl, 5% glycerol, 1 mM TCEP and 250 mM imidazole. The protein was then loaded onto a HiLoad 16/600 superdex 75 pg size exclusion column (GE healthcare) equilibrated with assay buffer containing 50 mM Tris, 150 mM NaCl, 5% glycerol and 1 mM TCEP, pH 8.0. Fractions containing the desired protein were flash-frozen and stored at −80° C. prior to use.
(§2) HIF-α proteins were labelled with Monolith NT-647 labelling dye (Nanotemper Technologies GmbH) according to the manufacturer's instructions. MST experiments were performed on a Monolith NT.115 system (Nanotemper Technologies GmbH), in assay buffer containing 50 nM labelled protein, 10% DMSO and 0.05% TWEEN-20. MST measurements were performed using 50% LED and 50% MST power.

The target in assay [2] is T2, HIF-2α PAS-B (240-350) (Homo sapiens, UniProt Q99814).
T2 construct: HIF-2α PAS-B (240-350); His tag; made in house; host or cells: E. coli BL21(DE3)-Rosetta, pET28a
T2 sequence (Q99814 240-350): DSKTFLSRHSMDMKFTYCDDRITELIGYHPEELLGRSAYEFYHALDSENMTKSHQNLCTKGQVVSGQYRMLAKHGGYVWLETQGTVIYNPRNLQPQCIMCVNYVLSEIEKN
The assay can be described thus: MST binding to recombinantly expressed HIF-2α PAS-B domain. The settings on record: MST, recombinant HIF-2α PAS-B domain; read-out: Kd / binding affinity for 2α PAS-B. As for the experimental part:
The three lead peptides were next chemically synthesised, using Fmoc-solid phase peptide synthesis methodology, followed by in-solution cyclisation under high dilution conditions.
as §1, with “use. […]” for “use.”

The target in assay [3] is HIF-2α PAS-B. Nature of the assay: 2α (μM). From the text:
Table printed on a drawing sheet, Figure 3 (part 1 of 3) A
Head of the field: 2α (μM)
The patent's description of the figure: FIG. 3

Assay [4] has as its target T3, human HIF-1α PAS-B (238-349), recombinant, His-tagged (human, UniProt Q16665 238-349, labelled with Monolith NT-647 dye for MST).
T3 construct: range 238-349; Expressed in E. coli BL21(DE3)-Rosetta from pET28a; also called HIF-1α PAS-B domain; PAS-B domain of HIF-1α; not shown: His tag from pET28a vector (BamHI/SacI cloning)
Nature of the assay: MST, HIF-1α PAS-B; bar chart of Kd (µM) for residues at position 1 of CRLIIF.

Assay [5] addresses T3, human HIF-1α PAS-B (238-349), …. The assay can be described thus: MST, HIF-1α PAS-B; bar chart of Kd (µM) for residues at position 5 of CRLIIF.
In assay [6] the target is T4, human HIF-2α PAS-B (240-350), recombinant, His-tagged (human, UniProt Q99814 240-350, labelled with Monolith NT-647 dye for MST).
T4 construct: range 240-350; Expressed in E. coli BL21(DE3)-Rosetta from pET28a; also called PAS-B domain of HIF-2α; not shown: His tag from pET28a vector (BamHI/SacI cloning)
T4 sequence (Q99814 240-350): as above
The assay can be described thus: MST, HIF-2α PAS-B (column 2α (µM)).

For assay [7], the target named is T3, human HIF-1α PAS-B (238-349), …. Nature of the assay: MST, NT-647-labelled recombinant 1α PAS-B. As for the experimental part: as §2
The target is the same in assay [8]. Nature of the assay: MST, HIF-1α PAS-B (column 1α (µM)).

Entries after “also recorded” stand apart in the source; their conditions may differ. Numbered stars: 1 amine (or outer) side, 2 acyl side, 3 side chain; on linkers, the order of the positions; unused ones are H or OH. Square brackets hold non-standard residues; d marks the D form. Peptide text beside a SMILES is read from it. Cys(Me) = S-methylcysteine, cys(Me), CSC[C@H](N[*:1])C(=O)[*:2]; Pen = CC(C)(S)[C@H](N)C(=O)O; hLeu = CC(C)CC[C@H](N)C(=O)O; hCys = N[C@@H](CCS)C(=O)O; Nle = CCCC[C@H](N)C(=O)O; Nva = CCC[C@H](N)C(=O)O; Aib = CC(C)(N)C(=O)O

T3 sequence (Q16665 238-349): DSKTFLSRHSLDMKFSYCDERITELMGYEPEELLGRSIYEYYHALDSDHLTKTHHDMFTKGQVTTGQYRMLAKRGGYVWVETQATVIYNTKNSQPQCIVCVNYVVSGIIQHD
T1 sequence (Q16665 238-349): as above

As for `CC[C@H](C)[C@@H]1NC(=O)[C@H](CC(C)C)NC(=O)[C@H](CC(C)C)NC(=O)[C@H](CCCNC(=N)N)NC(=O)[C@H](CS)NC(=O)[C@H](Cc2ccccc2)NC1=O` [Cyclic peptide #2, cyclo-cys arg leu leu ile phe] (cyclo(CRLLIF)), the Kd in assay [1] (MST, recombinant HIF-1α PAS-B domain, read-out: Kd / binding affinity for 1α PAS-B) lay within 10 to 14 µM; in assay [2], 10 to 14 µM. Moreover, the “affinity for the PAS-B domain of HIF-1α compared with cyclo-CLLFVY” value in assay [1] was “improved affinities”.
In turn, `CC[C@H](C)[C@@H]1NC(=O)[C@H](CC(C)C)NC(=O)[C@H](CCCNC(=N)N)NC(=O)[C@H](CS)NC(=O)[C@H](Cc2ccccc2)NC(=O)[C@H](C)NC1=O` [compound 10, CRLIAF] returned a Kd in assay [3] of 269 ± 7 µM.
For the molecule `CC[C@H](C)[C@@H]1NC(=O)[C@H](CC(C)C)NC(=O)[C@H](CCCNC(=N)N)NC(=O)[C@H](CS)NC(=O)[C@H](Cc2ccccc2)NC(=O)C(C)(C)NC1=O` [Cyclic peptide #38, cyclo-cys agr leu ile (Aib) phe (Aib)F] (cyclo([Aib]FCRLI)), the “affinity relative to parent peptide CRLIIF (in words)” value in assay [1] (MST, SAR substitutions, listed as Aib derivative) is “weaker Kd than the parent compound; also recorded: markedly improved affinity over both the alanine and aminobutyric acid”.
`CC[C@H](C)[C@@H]1NC(=O)[C@H](C)NC(=O)[C@H](CCCNC(=N)N)NC(=O)[C@H](CS)NC(=O)[C@H](Cc2ccccc2)NC(=O)[C@H]([C@@H](C)CC)NC1=O` [compound 8, CRAIIF] (cyclo(CRAIIF)) registered a Kd in assay [3] of 52 ± 7 µM.
In the case of `CC[C@H](C)[C@@H]1NC(=O)[C@H](CC(C)C)NC(=O)[C@H](CCCNC(=N)N)NC(=O)[C@H](C)NC(=O)[C@H](Cc2ccccc2)NC(=O)[C@H]([C@@H](C)CC)NC1=O` [Cyclic peptide #9, cyclo-ala agr leu ile ile phe] (cyclo(ARLIIF)), in assay [1] (MST, recombinant HIF-1α PAS-B domain), the “Kd / binding affinity for 1α PAS-B” value was “could not be determined”.
Regarding `CC[C@H](C)[C@@H]1NC(=O)[C@H](CC(C)C)NC(=O)[C@H](CCCCN)NC(=O)[C@H](CS)NC(=O)[C@H](Cc2ccccc2)NC(=O)[C@H]([C@@H](C)CC)NC1=O` [Cyclic peptide #1, cyclo-cys lys leu ile ile phe] (cyclo(CKLIIF)), in assay [1] (MST, 1α vs 2α PAS-B), the “selectivity between 1α and 2α PAS-B domains (in words)” value was “little difference in selectivity”. For the same molecule, the “affinity for the PAS-B domain of HIF-1α compared with cyclo-CLLFVY” value in assay [1] is “improved affinities”.

B1: cyclo-hcys arg leu ile ile phe (peptide)
peptide: cyclo([hCys]RLIIF)
SMILES: CC[C@H](C)[C@@H]1NC(=O)[C@H](CC(C)C)NC(=O)[C@H](CCCNC(=N)N)NC(=O)[C@H](CCS)NC(=O)[C@H](Cc2ccccc2)NC(=O)[C@H]([C@@H](C)CC)NC1=O
notes: also called Cyclo-hCRLIIF; cyclic peptide #13d
B1: the Kd in assay [4] amounted to 44 µM.

B2: cyclo-cys arg leu ile h-leu phe (peptide)
peptide: cyclo(CRLI[hLeu]F)
SMILES: CC[C@H](C)[C@@H]1NC(=O)[C@H](CC(C)C)NC(=O)[C@H](CCCNC(=N)N)NC(=O)[C@H](CS)NC(=O)[C@H](Cc2ccccc2)NC(=O)[C@H](CCC(C)C)NC1=O
notes: also called Cyclo-CRLI(hL)F; cyclic peptide #33
In the case of B2, the binding result in assay [5] was “binds”.

B3: cyclo-Pen arg leu ile ile phe (peptide)
peptide: cyclo([Pen]RLIIF)
SMILES: CC[C@H](C)[C@@H]1NC(=O)[C@H](CC(C)C)NC(=O)[C@H](CCCNC(=N)N)NC(=O)[C@H](C(C)(C)S)NC(=O)[C@H](Cc2ccccc2)NC(=O)[C@H]([C@@H](C)CC)NC1=O
notes: also called Cyclo-PenRLIIF; cyclic peptide #12d
In the case of B3, in assay [4], the Kd was found to be 9 µM.

B4: cyclo-cys arg leu ile (n-leu) phe (peptide)
peptide: cyclo(CRLI[Nle]F)
SMILES: CCCC[C@@H]1NC(=O)[C@H]([C@@H](C)CC)NC(=O)[C@H](CC(C)C)NC(=O)[C@H](CCCNC(=N)N)NC(=O)[C@H](CS)NC(=O)[C@H](Cc2ccccc2)NC1=O
notes: also called Cyclo-CRLI(Nle)F; cyclic peptide #34
For B4, the binding result in assay [5] is recorded as “binds”.

B5: cyclo-cys arg leu ile (Nva) phe (peptide)
peptide: cyclo(CRLI[Nva]F)
SMILES: CCC[C@@H]1NC(=O)[C@H]([C@@H](C)CC)NC(=O)[C@H](CC(C)C)NC(=O)[C@H](CCCNC(=N)N)NC(=O)[C@H](CS)NC(=O)[C@H](Cc2ccccc2)NC1=O
notes: also called Cyclo-CRLI(Nva)F; cyclic peptide #35
Turning to B5, the binding result in assay [5] was “binds”.

B6: C(Me) (peptide)
cyclic peptide: cyclo([Cys(Me)]RLIIF)
SMILES: CC[C@H](C)[C@@H]1NC(=O)[C@H](CC(C)C)NC(=O)[C@H](CCCNC(=N)N)NC(=O)[C@H](CSC)NC(=O)[C@H](Cc2ccccc2)NC(=O)[C@H]([C@@H](C)CC)NC1=O
notes: Bar 'C(Me)' in the chart of C1 substitutions of CRLIIF; Comparative peptide; also called Cyclo-C(Me)RLIIF; cyclo-(methyl)cys arg leu ile ile phe
Turning to B6, the Kd in assay [4] was determined as 62 µM.
For the molecule CRLIIF (head-to-tail cyclic (cyclo-), also called CRLIIF; cyclic peptide #4) [cyclo-cys arg leu ile ile phe], the Kd in assay [4] stood at 3.9 µM; in assay [6], 11 µM; in assay [7], 3.8 µM. In addition, in assay [7], the “fold greater affinity than CKLLIF” value was approximately 3 fold.
In the case of ARLIIF (head-to-tail cyclic (cyclo-), also called ARLIIF; cyclic peptide #9) [cyclo-ala arg leu ile ile phe], the Kd in assay [4] is more than 200 µM.

B7: T (peptide)
cyclic peptide: TRLIIF
modifications: head-to-tail cyclised
notes: Bar 'T' in the chart of C1 substitutions of CRLIIF; Comparative peptide; also called Cyclo-TRLIIF; cyclo-thr arg leu ile ile phe
As to B7, in assay [4], the Kd is more than 200 µM.
As for CRLIAF (head-to-tail cyclic (cyclo-), also called CRLIAF; cyclic peptide #7) [cyclo-cys arg leu ile ala phe], the Kd was 111 µM in assay [8] and 269 µM in assay [6].

B8: cyclo-cys arg leu ile leu phe (peptide)
peptide: CRLILF
modifications: head-to-tail cyclic (cyclo-)
notes: also called Cyclo-CRLILF; cyclic peptide #36
For B8, in assay [5], the binding result is “binds”.

B9: cyclo-cys arg leu ile val phe (peptide)
peptide: CRLIVF
modifications: head-to-tail cyclic (cyclo-)
notes: also called Cyclo-CRLIVF; cyclic peptide #37
For B9, the binding result in assay [5] was “binds”.

B10: M (peptide)
cyclic peptide: MRLIIF
modifications: head-to-tail cyclised
notes: Bar 'M' in the chart of C1 substitutions of CRLIIF; Comparative peptide; also called Cyclo-MRLIIF; cyclo-met arg leu ile ile phe
For the molecule B10, the Kd in assay [4] is 108 µM.
Turning to CRLAIF (head-to-tail cyclic (cyclo-), also called CRLAIF; cyclic peptide #6) [cyclo-cys arg leu ala ile phe], the Kd in assay [8] came out at 13 µM; in assay [6], 61 µM.
Taken in the same sequence, the figures for CRLIIA (head-to-tail cyclic (cyclo-), also called CRLIIA; cyclic peptide #8) [cyclo-cys arg leu ile ile ala] were 91 µM and 373 µM.
Consider cyclo(CKLLIF) (not fully specified, also called CKLLIF; cyclic peptide #5) [cyclo-cys lys leu leu ile phe], for which, in assay [7], the Kd came out at 12 µM.

B11: S (peptide)
cyclic peptide: SRLIIF
modifications: head-to-tail cyclised
notes: Bar 'S' in the chart of C1 substitutions of CRLIIF; Comparative peptide; also called Cyclo-SRLIIF; cyclo-ser arg leu ile ile phe
As to B11, in assay [4], the Kd came out at 169 µM.
Consider CALIIF (head-to-tail cyclic (cyclo-), also called CALIIF; cyclic peptide #10) [cyclo-cys ala leu ile ile phe], for which the Kd was found to be 30 µM in assay [8] and 12 µM in assay [6].
In the case of CRAIIF (head-to-tail cyclic (cyclo-), also called CRAIIF; cyclic peptide #11) [cyclo-cys arg ala ile ile phe], the figures for the Kd in assay [8] and in assay [6] were 53 µM and 52 µM, respectively.
